The target of experiment [1] is HDAC1-flag (Homo sapiens (Human), UniProt Q13547 1-482). Kind of experiment: cell-based or functional assay.
Experiment [2] deals with T1, full length HDAC1 (yeast two-hybrid bait) (Homo sapiens (Human), UniProt Q13547 1-482).
T1 construct: also called histone deacetylase 1
Kind of experiment: yeast two-hybrid screen.

T1 sequence (Q13547 whole entry): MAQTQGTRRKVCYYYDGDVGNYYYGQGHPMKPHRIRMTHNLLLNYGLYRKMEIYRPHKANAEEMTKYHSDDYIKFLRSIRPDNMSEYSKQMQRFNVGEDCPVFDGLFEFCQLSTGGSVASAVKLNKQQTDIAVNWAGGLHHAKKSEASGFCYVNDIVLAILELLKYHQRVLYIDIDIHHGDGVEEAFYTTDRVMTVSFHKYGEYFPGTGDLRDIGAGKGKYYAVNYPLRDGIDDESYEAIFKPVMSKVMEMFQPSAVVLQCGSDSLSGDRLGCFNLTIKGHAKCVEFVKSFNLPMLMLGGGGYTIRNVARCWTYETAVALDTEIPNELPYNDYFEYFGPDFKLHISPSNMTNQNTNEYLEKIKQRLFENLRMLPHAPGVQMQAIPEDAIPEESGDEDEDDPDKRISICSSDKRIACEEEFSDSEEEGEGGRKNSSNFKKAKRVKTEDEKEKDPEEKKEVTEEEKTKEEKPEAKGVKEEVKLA
HDAC1-flag, sequence (Q13547 whole entry): as above

B1: V5-APPL (full length APPL protein) (other, not shown: small tags and cut ends)
chain: MPGIDKLPIEETLEDSPQTRSLLGVFEEDATAISNYMNQLYQAMHRIYDAQNELSAATHLTSKLLKEYEKQRFPLGGDDEVMSSTLQQFSKVIDELSSCHAVLSTQLADAMMFPITQFKERDLKEILTLKEVFQIASNDHDAAINRYSRLSKKRENDKVKYEVTEDVYTSRKKQHQTMMHYFCALNTLQYKKKIALLEPLLGYMQAQISFFKMGSENLNEQLEEFLANIGTSVQNVRREMDSDIETMQQTIEDLEVASDPLYVPDPDPTKFPVNRNLTRKAGYLNARNKTGLVSSTWDRQFYFTQGGNLMSQARGDVAGGLAMDIDNCSVMAVDCEDRRYCFQITSFDGKKSSILQAESKKDHEEWICTINNISKQIYLSENPEETAARVNQSALEAVTPSPSFQQRHESLRPAAGQSRPPTARTSSSGSLGSESTNLAALSLDSLVAPDTPIQFDIISPVCEDQPGQAKAFGQGGRRTNPFGESGGSTKSETEDSILHQLFIVRFLGSMEVKSDDHPDVVYETMRQILAARAIHNIFRMTESHLLVTCDCLKLIDPQTQVTRLTFPLPCVVLYATHQENKRLFGFVLRTSSGRSESNLSSVCYIFESNNEGEKICDSVGLAKQIALHAELDRRASEKQKEIERVKEKQQKELNKQKQIEKDLEEQSRLIAASSRPNQASSEGQFVVLSSSQSEESDLGEGGKKRESEA
Turning to B1, in experiment [1], the “HDAC1 activity: release of [3H]acetic acid from an [3H]acetyl-labeled histone H4 peptide by immunoprecipitated HDAC1” value was approximately 4 fold.

B2: fragment of APPL (aa 489-639) identified in the yeast two-hybrid screen (other)
chain: TKSETEDSILHQLFIVRFLGSMEVKSDDHPDVVYETMRQILAARAIHNIFRMTESHLLVTCDCLKLIDPQTQVTRLTFPLPCVVLYATHQENKRLFGFVLRTSSGRSESNLSSVCYIFESNNEGEKICDSVGLAKQIALHAELDRRASEKQ
notes: Prey from a human brain cDNA library; The fragment fully overlaps the PTB domain (aa 500-634); also called APPL-PTB; fragment of DIP13alpha
Turning to B2, in experiment [2], the binding result is given as “binds”.
